Reference: US20250313611A1 (VIB VZW, published 2025)
Changes are numbered by the printed parent chain.

T1: recombinant MERS-COV spike protein (MERS-CoV, UniProt K9N5Q8 18-1291)
T1 sequence: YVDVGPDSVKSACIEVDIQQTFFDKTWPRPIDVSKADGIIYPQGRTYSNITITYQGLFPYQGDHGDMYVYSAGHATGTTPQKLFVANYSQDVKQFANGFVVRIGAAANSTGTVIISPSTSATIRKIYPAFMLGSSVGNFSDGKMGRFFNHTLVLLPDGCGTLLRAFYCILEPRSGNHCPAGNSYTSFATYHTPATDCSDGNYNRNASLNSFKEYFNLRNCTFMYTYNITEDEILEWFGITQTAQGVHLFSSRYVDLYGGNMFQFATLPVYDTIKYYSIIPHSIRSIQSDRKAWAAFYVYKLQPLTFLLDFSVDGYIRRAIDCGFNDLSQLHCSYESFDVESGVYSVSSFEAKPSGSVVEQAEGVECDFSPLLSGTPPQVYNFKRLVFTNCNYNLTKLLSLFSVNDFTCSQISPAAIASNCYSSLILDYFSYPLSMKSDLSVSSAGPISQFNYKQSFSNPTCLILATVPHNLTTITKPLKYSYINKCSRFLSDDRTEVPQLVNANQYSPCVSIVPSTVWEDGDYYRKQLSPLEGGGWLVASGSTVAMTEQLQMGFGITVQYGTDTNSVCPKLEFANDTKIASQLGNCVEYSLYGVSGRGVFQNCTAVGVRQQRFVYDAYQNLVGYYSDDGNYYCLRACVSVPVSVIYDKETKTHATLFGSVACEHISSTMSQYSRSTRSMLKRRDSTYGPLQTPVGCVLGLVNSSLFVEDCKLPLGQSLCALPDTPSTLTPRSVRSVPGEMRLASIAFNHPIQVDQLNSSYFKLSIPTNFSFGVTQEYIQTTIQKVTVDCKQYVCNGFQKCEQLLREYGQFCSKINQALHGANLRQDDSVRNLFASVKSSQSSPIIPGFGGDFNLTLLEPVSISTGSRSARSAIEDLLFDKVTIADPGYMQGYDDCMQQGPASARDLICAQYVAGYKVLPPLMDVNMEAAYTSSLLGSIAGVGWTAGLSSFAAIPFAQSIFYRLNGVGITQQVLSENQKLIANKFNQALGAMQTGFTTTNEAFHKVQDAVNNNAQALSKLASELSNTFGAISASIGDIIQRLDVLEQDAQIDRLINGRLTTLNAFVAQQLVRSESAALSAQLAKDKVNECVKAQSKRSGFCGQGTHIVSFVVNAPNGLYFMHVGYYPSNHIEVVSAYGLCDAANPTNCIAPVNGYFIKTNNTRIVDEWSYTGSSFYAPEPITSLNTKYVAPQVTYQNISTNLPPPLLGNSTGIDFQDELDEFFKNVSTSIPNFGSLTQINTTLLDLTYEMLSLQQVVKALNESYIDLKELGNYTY

T2: recombinant HKU1 spike protein (HCoV-HKU1, UniProt Q5MQD0 13-1276)
T2 sequence: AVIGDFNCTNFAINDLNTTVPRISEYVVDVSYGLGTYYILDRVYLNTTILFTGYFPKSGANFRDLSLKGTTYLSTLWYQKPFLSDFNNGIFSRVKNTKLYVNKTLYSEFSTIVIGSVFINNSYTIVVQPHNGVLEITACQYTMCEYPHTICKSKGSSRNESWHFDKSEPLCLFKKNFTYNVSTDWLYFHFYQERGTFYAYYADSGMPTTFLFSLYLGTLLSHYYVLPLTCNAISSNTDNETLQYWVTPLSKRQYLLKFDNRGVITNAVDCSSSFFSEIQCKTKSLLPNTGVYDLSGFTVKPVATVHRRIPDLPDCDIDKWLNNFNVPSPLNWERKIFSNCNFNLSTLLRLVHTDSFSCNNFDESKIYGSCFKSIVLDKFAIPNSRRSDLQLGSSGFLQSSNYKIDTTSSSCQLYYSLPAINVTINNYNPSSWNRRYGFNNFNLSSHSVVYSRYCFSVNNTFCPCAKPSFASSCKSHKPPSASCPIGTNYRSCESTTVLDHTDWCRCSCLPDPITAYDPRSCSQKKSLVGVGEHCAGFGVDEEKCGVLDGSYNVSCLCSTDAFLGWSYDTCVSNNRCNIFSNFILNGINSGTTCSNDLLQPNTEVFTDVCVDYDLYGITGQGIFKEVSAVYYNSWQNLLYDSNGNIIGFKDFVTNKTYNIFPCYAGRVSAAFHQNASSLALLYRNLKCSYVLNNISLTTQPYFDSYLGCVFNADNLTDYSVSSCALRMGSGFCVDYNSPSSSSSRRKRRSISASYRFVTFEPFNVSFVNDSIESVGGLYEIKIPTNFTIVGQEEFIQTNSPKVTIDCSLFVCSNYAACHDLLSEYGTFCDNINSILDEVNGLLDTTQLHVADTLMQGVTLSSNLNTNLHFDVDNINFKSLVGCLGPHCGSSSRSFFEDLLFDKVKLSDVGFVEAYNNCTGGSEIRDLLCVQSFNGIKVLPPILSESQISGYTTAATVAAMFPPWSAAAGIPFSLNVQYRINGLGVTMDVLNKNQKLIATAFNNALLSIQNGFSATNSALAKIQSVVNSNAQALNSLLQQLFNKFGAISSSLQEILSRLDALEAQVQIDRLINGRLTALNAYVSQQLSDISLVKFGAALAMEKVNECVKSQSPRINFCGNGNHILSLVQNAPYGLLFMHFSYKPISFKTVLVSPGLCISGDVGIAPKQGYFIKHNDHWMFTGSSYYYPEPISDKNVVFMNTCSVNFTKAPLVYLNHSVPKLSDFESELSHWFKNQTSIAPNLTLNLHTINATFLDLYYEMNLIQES

B1: VHH R3_C4 (VHH)
VHH: QVQLQESGGGLVQAGDSLRLSCAVSGRPFSTYTMGWFRQAPGKEREFVAAMRWSGGTIYYADSVKGRFTISRDNDKNTVNLEMNSLKPEDTAVYYCAAAYVSKANYGSLWYRASGLYDYWGQGTQVTVSS
B2: VHH R4_DC16 (VHH)
VHH: B1 VHH with D75A, K76Q, E82Q, L109S, A113N
B3: VHH R4_DC13 (VHH)
VHH: B1 VHH with A14T, A50S, I58V, A61S, E82Q, S85N, L109F, A113N, G115D
B4: VHH R3_DC20 (VHH)
VHH: B1 VHH with D75A, K76Q, E82Q, K87E, A113N
B5: VHH R3_DC2 (VHH)
VHH: B1 VHH with A14T, A50S, I58K, A61S, T69S, K76Q, E82Q, A113N
B6: VHH R4_DC20 (VHH)
VHH: B1 VHH with A14T, A50S, I58M, Y59N, K76Q, E82Q, A113N
B7: VHH R4_DC9 (VHH)
VHH: QVQLQESGGGLVQAGDSLRLSCAASGRIFSTYTMGWFRQAPGMEREFVAAIRWSGSTVYYADSVKGRFTISRDNAKNTVYLQMNSLKPEDTAVYYCAAARVSKANYGTLWYRASGLYDYWGQGTQVTVSS
B8: VHH R3_DC9 (VHH)
VHH: B1 VHH with A14T, A50S, I58M, A61S, E82Q, A113N
B9: VHH R3_DC23 (VHH)
VHH: QVQLQESGGGLVQAGDSLTLSCAVSGRIFSTYTMGWFRQAPGKEREFVAAVRWGAGTIYYADSMKGRFTISRDSAKNTVDLQMNSTKPEDTAVYYCGAAYVSKANYGSLWYQDSRRYDYWGQGTQVTVSS
B10: VHH R4_DC6 (VHH)
VHH: QVQLQESGGGLVQAGDSLRLSCAASGRILSTFTMGWFRQAPGKEREFVAAMRWNGGTKNYADSVKGRFTISRDNANSVVYLQMNSTKPEDTAVYYCAAAYVSKANYGSLWYRTPSLYDYWGQGTQVTVSS

Each binder was assayed against T1, recombinant MERS-COV spike protein (assay: ELISA, periplasmic extract 1/10, heat map of binding (%)).

Row | Binder | binding result
1 | B1 | no binding (tested: extract 1/10, concentration not given)
2 | B2 | no binding (tested: extract 1/10, concentration not given)
3 | B3 | no binding (tested: extract 1/10, concentration not given)
4 | B4 | no binding (tested: extract 1/10, concentration not given)
5 | B5 | no binding (tested: extract 1/10, concentration not given)
6 | B6 | no binding (tested: extract 1/10, concentration not given)
7 | B7 | no binding (tested: extract 1/10, concentration not given)
8 | B8 | no binding (tested: extract 1/10, concentration not given)
9 | B9 | no binding (tested: extract 1/10, concentration not given)
10 | B10 | no binding (tested: extract 1/10, concentration not given)

The binders below were run against T2, recombinant HKU1 spike protein in the same assay as above.

Row | Binder | binding result
11 | B1 | no binding (tested: extract 1/10, concentration not given)
12 | B2 | no binding (tested: extract 1/10, concentration not given)
13 | B3 | no binding (tested: extract 1/10, concentration not given)
14 | B4 | no binding (tested: extract 1/10, concentration not given)
15 | B5 | no binding (tested: extract 1/10, concentration not given)
16 | B6 | no binding (tested: extract 1/10, concentration not given)
17 | B7 | no binding (tested: extract 1/10, concentration not given)
18 | B8 | no binding (tested: extract 1/10, concentration not given)
19 | B9 | no binding (tested: extract 1/10, concentration not given)
20 | B10 | no binding (tested: extract 1/10, concentration not given)

What follows are binders tested against SARS-COV-2 RBD (His-tagged, Sinobiologicals) (SARS-CoV-2 (Wuhan), UniProt P0DTC2 319-541) (assay: ELISA, periplasmic extract 1/10, OD450 antigen/OD450 BSA).

Row | Binder | binding result
21 | B4 | no binding (tested: extract 1/10, concentration not given)
22 | B5 | no binding (tested: extract 1/10, concentration not given)
23 | B8 | no binding (tested: extract 1/10, concentration not given)

The binders below were run against T3, BSA (bovine, UniProt P02769) (assay: ELISA, coated BSA, dilution series, OD450 [2/3]).
T3 construct: coated control antigen
T3 sequence (P02769 25-607 limits assumed): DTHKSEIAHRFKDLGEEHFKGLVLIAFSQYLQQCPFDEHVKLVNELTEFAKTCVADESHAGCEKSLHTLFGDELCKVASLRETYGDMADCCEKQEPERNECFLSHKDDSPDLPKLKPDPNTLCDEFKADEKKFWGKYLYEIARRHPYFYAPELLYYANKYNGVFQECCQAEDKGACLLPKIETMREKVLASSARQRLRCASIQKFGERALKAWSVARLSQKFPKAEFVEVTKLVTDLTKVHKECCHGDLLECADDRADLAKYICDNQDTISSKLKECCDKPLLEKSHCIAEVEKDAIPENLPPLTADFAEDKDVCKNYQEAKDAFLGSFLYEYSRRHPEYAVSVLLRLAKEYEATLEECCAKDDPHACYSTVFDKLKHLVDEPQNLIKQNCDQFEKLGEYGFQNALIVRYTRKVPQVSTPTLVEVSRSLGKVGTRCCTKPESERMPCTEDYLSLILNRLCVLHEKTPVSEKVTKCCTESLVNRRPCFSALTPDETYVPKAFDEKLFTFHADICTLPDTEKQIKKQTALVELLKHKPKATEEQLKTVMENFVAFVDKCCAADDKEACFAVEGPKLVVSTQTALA

Row | Binder | binding result
24 | B1 | no binding (tested: 10 µg/ml)
25 | B2 | no binding (tested: 10 µg/ml)
26 | B3 | no binding (tested: 10 µg/ml)
27 | B5 | no binding (tested: 10 µg/ml)
